The values that follow are results of earlier work, collected in publication PMC12564508.

Usually Kd stands for the free concentration of one partner at which half of the binding sites on the other are occupied at equilibrium, for simple one-to-one binding.

This series concerns the target NS4B (Dengue virus) (UniProt P27909).

Consider NS4A (from UniProt P27909), for which the Kd is 50 nM.
